Data as given in patent US20260217795A1 (NANJING GENSCRIPT BIOTECH, published 2026).

B1: 5G4-1 monoclonal antibody (antibody, V domains shown)
VH: QSVKESEGGLFKPADTLSLTCTVSGFSLNNNDMSWVRQAPGNGLEYIGVMSSGGRLYAATWAKSRFTITRNTNLGTVTLKLTSLTAADTATYFCARGSPSSNRGIDIWGPGTLVTVSS
VL: LTQTPSSVSAPVGGTVSINCQSDKSVYADNYLSWYQQTPGQPPKLLIYKASTLASGIPSRFKGSGSGTQFTLAISDVQCDDAATYYCAGGYSGNSDNGFGGGTEVVVR
notes: Rabbit monoclonal antibody, made recombinantly in ExpiCHO-S cells, purified on protein A as IgG and detected with anti-rabbit IgG (Fc-specific); also called clone 5G4-1
B2: 24F7-1 monoclonal antibody (antibody, V domains shown)
VH: QSLRESEGGLFKPADTLTLTCTVSGFSITAYNVGWVRQAPGKGLEWIGVIDISGATFYATWAKSRSTITRDTSLNTVTLKMTSLTAADTATYFCTRDPAFIWGPGTLVTVSS
VL: DVVMTQTPASVEAAVGGTVTIKCQASQSVSSYLAWYQQKPGQPPKLLIYRASTLASGVPSRFKGSGSGTEFTLTISDLECADAATYYCQSYVYSNVLTYFNAFGGGTGVVVK
notes: Rabbit monoclonal antibody, made recombinantly in ExpiCHO-S cells, purified on protein A as IgG and detected with anti-rabbit IgG (Fc-specific); also called clone 24F7-1

Tests used:
Test in all cases: indirect ELISA, VLP coated at 1 ug/mL, antibody in 3-fold dilutions from 1 ug/mL
[1] = biological target: T1, AAVDJ virus-like particle (VLP) (adeno-associated virus DJ)
T1 construct: VLP self-assembled from VP1, VP2 and VP3 expressed in 293T cells; coated on ELISA plates; also called VLP of AAVDJ

[2] = biological target: T2, AAV9 virus-like particle (VLP) (adeno-associated virus 9)
T2 construct: VLP self-assembled from VP1, VP2 and VP3 expressed in 293T cells; coated on ELISA plates; also called VLP of AAV9

[3] = biological target: T3, recombinant rh.1-type AAV virus-like particles (AAVrh.1 VLP) (adeno-associated virus rh.1 (isolated …))
T3 construct: The immunogen; VLP self-assembled from VP1, VP2 and VP3 expressed in 293T cells; coated on ELISA plates; also called rh.1-serotype AAV
T3 chain 1: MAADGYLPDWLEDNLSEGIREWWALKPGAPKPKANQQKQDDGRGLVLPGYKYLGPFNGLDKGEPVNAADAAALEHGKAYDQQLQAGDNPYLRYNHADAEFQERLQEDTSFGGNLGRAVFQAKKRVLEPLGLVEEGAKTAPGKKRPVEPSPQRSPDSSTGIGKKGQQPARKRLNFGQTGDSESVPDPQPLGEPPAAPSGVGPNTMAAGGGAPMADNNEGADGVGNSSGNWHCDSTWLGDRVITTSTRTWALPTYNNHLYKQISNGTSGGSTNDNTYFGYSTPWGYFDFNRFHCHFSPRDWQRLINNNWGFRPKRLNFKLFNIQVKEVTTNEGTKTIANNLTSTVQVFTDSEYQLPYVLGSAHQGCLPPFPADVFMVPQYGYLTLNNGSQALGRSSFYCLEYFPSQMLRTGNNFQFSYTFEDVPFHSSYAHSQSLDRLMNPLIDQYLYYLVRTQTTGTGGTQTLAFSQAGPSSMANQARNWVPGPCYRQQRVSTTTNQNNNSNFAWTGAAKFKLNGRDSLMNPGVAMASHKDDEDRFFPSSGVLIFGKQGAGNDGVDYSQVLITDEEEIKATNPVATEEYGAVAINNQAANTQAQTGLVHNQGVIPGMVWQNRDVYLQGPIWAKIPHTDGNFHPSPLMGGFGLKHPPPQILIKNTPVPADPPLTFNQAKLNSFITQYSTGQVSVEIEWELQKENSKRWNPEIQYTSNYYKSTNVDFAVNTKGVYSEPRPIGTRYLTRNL
T3 chain 2: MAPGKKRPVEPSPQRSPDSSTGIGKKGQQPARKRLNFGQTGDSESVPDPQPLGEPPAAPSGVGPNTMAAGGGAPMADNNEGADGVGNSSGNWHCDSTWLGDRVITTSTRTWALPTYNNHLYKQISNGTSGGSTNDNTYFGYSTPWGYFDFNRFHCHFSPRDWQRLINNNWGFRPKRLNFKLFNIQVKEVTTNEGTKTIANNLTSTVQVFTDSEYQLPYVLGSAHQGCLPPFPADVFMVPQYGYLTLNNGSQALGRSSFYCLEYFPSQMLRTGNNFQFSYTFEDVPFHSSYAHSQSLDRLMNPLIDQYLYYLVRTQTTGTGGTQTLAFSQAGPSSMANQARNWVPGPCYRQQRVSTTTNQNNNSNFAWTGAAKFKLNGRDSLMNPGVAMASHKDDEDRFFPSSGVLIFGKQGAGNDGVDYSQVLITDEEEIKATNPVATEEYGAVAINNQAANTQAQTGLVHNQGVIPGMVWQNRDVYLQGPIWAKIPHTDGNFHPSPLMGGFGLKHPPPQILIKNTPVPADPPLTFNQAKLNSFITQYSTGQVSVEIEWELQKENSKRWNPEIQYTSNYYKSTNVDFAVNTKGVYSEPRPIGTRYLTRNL
T3 chain 3: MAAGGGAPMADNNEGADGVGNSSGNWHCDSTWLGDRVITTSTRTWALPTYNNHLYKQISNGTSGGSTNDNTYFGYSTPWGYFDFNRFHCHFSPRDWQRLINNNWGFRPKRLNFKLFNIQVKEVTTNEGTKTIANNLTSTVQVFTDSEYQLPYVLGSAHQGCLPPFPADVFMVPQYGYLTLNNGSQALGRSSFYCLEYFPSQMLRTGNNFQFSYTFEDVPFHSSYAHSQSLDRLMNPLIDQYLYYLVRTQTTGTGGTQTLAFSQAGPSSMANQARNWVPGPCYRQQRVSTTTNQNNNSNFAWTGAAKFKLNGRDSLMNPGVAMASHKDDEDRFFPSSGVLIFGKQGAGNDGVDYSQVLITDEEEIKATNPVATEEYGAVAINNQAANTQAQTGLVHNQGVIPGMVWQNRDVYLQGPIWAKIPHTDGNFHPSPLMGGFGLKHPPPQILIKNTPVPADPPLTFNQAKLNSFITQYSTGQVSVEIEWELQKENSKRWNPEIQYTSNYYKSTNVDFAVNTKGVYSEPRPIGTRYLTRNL

[4] = biological target: T4, AAV2 virus-like particle (VLP) (adeno-associated virus 2, UniProt P03135 1-735; P03135 1-598; P03135 1-533)
T4 construct: VLP self-assembled from VP1, VP2 and VP3 expressed in 293T cells; coated on ELISA plates; also called VLP of AAV2

[5] = biological target: T5, AAV6 virus-like particle (VLP) (adeno-associated virus 6)
T5 construct: VLP self-assembled from VP1, VP2 and VP3 expressed in 293T cells; coated on ELISA plates; also called VLP of AAV6

[6] = biological target: T6, AAV1 virus-like particle (VLP) (adeno-associated virus 1)
T6 construct: VLP self-assembled from VP1, VP2 and VP3 expressed in 293T cells; coated on ELISA plates; also called VLP of AAV1

[7] = biological target: T7, AAV8 virus-like particle (VLP) (adeno-associated virus 8)
T7 construct: VLP self-assembled from VP1, VP2 and VP3 expressed in 293T cells; coated on ELISA plates; also called VLP of AAV8
T7 VP1: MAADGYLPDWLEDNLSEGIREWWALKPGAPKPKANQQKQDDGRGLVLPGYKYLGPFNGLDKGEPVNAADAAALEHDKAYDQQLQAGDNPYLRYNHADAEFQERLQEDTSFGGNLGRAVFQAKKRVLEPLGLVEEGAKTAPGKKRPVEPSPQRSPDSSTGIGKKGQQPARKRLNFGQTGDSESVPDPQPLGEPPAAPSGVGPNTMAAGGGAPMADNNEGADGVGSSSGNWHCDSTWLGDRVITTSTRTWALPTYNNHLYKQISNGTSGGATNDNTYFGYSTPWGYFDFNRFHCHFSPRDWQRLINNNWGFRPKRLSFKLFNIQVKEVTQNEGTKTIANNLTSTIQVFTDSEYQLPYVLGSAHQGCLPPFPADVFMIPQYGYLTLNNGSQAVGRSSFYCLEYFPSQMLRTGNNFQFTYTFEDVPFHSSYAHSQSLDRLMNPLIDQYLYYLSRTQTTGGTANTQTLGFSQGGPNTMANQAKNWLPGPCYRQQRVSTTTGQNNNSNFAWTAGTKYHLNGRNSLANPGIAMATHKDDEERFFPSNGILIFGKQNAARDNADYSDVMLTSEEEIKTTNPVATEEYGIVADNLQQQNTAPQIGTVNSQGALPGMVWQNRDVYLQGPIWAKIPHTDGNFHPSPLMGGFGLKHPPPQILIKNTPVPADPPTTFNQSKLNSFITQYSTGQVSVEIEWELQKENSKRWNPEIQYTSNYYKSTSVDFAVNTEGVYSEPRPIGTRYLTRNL

[8] = biological target: T8, AAV5 virus-like particle (VLP) (adeno-associated virus 5)
T8 construct: VLP self-assembled from VP1, VP2 and VP3 expressed in 293T cells; coated on ELISA plates; also called VLP of AAV5

Binder | EC50 [1] | EC50 [2] | EC50 [3] | EC50 [4] | EC50 [5] | EC50 [6] | EC50 [7] | EC50 [8]
B1 | 1.12 ng/mL | 0.64 ng/mL | 0.51 ng/mL | 0.94 ng/mL | 0.64 ng/mL | 1.03 ng/mL | 1 ng/mL | 1.16 ng/mL
B2 | 0.5 ng/mL | – | 0.93 ng/mL | 0.51 ng/mL | 0.61 ng/mL | 0.79 ng/mL | – | –
